Legend:
[1] = molecular target: T1, rHuman ErbB2/Fc Chimera, CF (R&D Systems Cat#1129-ER) (human, UniProt P04626 23-652); test: MSD ECL titration, Fab 37.2 nM, blank 199
T1 construct: Bought Fc chimera; also called HER2/neu; Fc part of the bought chimera not given

[2] = molecular target: T2, rHuman CD44/Fc Chimera, CF (R&D Systems Cat#3660-CD) (human, UniProt P16070 21-220); test: MSD ECL titration, Fab 37.2 nM, blank 199
T2 construct: Bought Fc chimera; Fc part of the bought chimera not given

[3] = molecular target: T3, rHuman HGF R/c-MET/Fc Chimera, CF (R&D Systems Cat#358-MT/CF) (human, UniProt P08581 25-932); test: MSD ECL titration, Fab 37.2 nM, blank 199
T3 construct: Bought Fc chimera; also called HGF R/Fc; Fc part of the bought chimera not given

[4] = molecular target: T4, rHuman Notch-1/Fc Chimera, CF (R&D Systems Cat#3647-TK) (human, UniProt P46531 19-526); test: MSD ECL titration, Fab 37.2 nM, blank 199
T4 construct: Bought Fc chimera; Fc part of the bought chimera not given

[5] = molecular target: T5, rHuman EGF R/Fc Chimera, CF (R&D Systems Cat#344-ER) (human, UniProt P00533 25-645); test: MSD ECL titration, Fab 37.2 nM, blank 199
T5 construct: Bought Fc chimera; Fc part of the bought chimera not given

[6] = molecular target: T6, Recombinant Human DLL4 (R&D Systems Cat#1506-D4/CF) (human, UniProt Q9NR61 27-524); test: MSD ECL titration, Fab 37.2 nM, blank 199
T6 construct: Bought recombinant protein; also called rHuman DLL4; delta-like protein 4

[7] = molecular target: T7, rHuman IGF-1 sR (insulin-like growth factor-1 soluble receptor), CF (R&D Systems Cat#391-GR) (human, UniProt P08069 31-932); test: MSD ECL titration, Fab 37.2 nM, blank 199
T7 construct: Bought soluble receptor; also called IGF-R1

[8] = molecular target: T8, rHuman P-Cadherin/Fc Chimera, CF (R&D Systems Cat#861-PC) (human, UniProt P22223 108-654); test: MSD ECL titration, Fab 37.2 nM, blank 199
T8 construct: Bought Fc chimera; Fc part of the bought chimera not given

[9] = molecular target: T9, rHuman Erythropoietin R/Fc Chimera, CF (R&D Systems Cat#963-ER) (human, UniProt P19235 25-250); test: MSD ECL titration, Fab 37.2 nM, blank 199
T9 construct: Bought Fc chimera; also called EPO R/Fc; EPOR; Fc part of the bought chimera not given
T9 sequence: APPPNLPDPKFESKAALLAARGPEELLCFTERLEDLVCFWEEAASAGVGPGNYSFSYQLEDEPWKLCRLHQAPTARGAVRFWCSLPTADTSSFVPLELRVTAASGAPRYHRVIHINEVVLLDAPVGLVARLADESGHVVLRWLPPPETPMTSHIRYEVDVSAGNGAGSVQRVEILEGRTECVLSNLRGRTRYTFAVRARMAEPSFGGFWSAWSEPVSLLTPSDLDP

[10] = molecular target: T10, rHuman ErbB2/Fc Chimera, CF (R&D Systems Cat#1129-ER) (human, UniProt P04626 23-652); test: ECL (MSD multi-spot), antigen on plate, Fab 0.4 nM
T10 construct: Bought Fc chimera; also called HER2/neu; not shown: Fc of the bought chimera

[11] = molecular target: T11, rHuman P-Cadherin/Fc Chimera, CF (R&D Systems Cat#861-PC) (human, UniProt P22223 108-654); test: ECL (MSD multi-spot), antigen on plate, Fab 0.4 nM
T11 construct: Bought Fc chimera; also called CDH3; not shown: Fc of the bought chimera

[12] = molecular target: T12, rHuman HGF R/c-MET/Fc Chimera, CF (R&D Systems Cat#358-MT/CF) (human, UniProt P08581 25-932); test: ECL (MSD multi-spot), antigen on plate, Fab 0.4 nM
T12 construct: Bought Fc chimera; also called HGF R/Fc; not shown: Fc of the bought chimera

[13] = molecular target: T13, rHuman CD44/Fc Chimera, CF (R&D Systems Cat#3660-CD) (human, UniProt P16070 21-220); test: ECL (MSD multi-spot), antigen on plate, Fab 0.4 nM
T13 construct: Bought Fc chimera; not shown: Fc of the bought chimera

[14] = molecular target: T14, rHuman Erythropoietin R/Fc Chimera, CF (R&D Systems Cat#963-ER) (human, UniProt P19235 25-250); test: ECL (MSD multi-spot), antigen on plate, Fab 0.4 nM
T14 construct: Bought Fc chimera; also called EPO R/Fc; Epo R; not shown: Fc of the bought chimera
T14 sequence: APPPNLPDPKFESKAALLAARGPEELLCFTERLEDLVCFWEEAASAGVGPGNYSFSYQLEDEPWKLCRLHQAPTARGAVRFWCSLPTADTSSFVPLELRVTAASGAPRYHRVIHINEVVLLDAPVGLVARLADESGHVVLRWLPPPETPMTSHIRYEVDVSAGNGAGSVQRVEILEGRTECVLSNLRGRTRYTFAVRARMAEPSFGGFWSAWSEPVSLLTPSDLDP

[15] = molecular target: T15, Recombinant Human DLL4 (R&D Systems Cat#1506-D4/CF) (human, UniProt Q9NR61 27-524); test: ECL (MSD multi-spot), antigen on plate, Fab 0.4 nM
T15 construct: Bought recombinant protein; also called delta-like protein 4

[16] = molecular target: T16, rHuman EGF R/Fc Chimera, CF (R&D Systems Cat#344-ER) (human, UniProt P00533 25-645); test: ECL (MSD multi-spot), antigen on plate, Fab 0.4 nM
T16 construct: Bought Fc chimera; also called ErbB-1; not shown: Fc of the bought chimera

[17] = molecular target: T17, rHuman Notch-1/Fc Chimera, CF (R&D Systems Cat#3647-TK) (human, UniProt P46531 19-526); test: ECL (MSD Multi-Spot) binding assay, antigen spotted on plate; Fab 240 nM; blank spot 316
T17 construct: Bought Fc chimera; Fc part of the bought chimera not given

[18] = molecular target: T18, Recombinant Human DLL4 (R&D Systems Cat#1506-D4/CF) (human, UniProt Q9NR61 27-524); test: as above
T18 construct: Bought recombinant protein; also called delta-like protein 4; rHuman DLL4

[19] = molecular target: T19, rHuman Erythropoietin R/Fc Chimera, CF (R&D Systems Cat#963-ER) (human, UniProt P19235 25-250); test: as above
T19 construct: Bought Fc chimera; also called EPO R/Fc; Epo R; Fc part of the bought chimera not given
T19 sequence: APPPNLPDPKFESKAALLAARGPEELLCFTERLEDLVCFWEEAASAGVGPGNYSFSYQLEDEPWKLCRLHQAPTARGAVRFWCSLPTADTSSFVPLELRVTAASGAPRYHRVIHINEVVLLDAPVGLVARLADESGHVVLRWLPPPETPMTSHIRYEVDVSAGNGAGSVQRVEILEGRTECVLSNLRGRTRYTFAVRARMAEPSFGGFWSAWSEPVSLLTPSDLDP
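Further: blank spot per well as comparator with Hit at signal to blank ratio of 4 or more.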

B1: Fab VH1-46_IGHD6-6*01_IGHJ1*01 & L6_IGKJ1*01 (Fab, V domains shown)
VH: QVQLVQSGAEVKKPGASVKVSCKASGYTFTSYYMHWVRQAPGQGLEWMGIINPSGGSTSYAQKFQGRVTMTRDTSTSTVYMELSSLRSEDTAVYYCAREEYSSSSAEYFQHWGQGTLVTVSS
VL: not shown
notes: Expressed in E. coli as Fab: heavy chain with CH1 plus Flag and His tags from Plasmid A, kappa light chain constant region from Plasmid C; also called Fab No. 1
ECL signal [1]: 384 | ECL signal [2]: 356 | ECL signal [3]: 207 | ECL signal [4]: 402 | ECL signal [5]: 228 | ECL signal [6]: 16700 | ECL signal [7]: 295 | ECL signal [8]: 649 | ECL signal [9]: 315

B2: Fab VH1-46_IGHD6-6*01_IGHJ1*01_S102A_S103P_S104F & L6_IGKJ1*01_S30N (Fab, V domains shown)
VH: QVQLVQSGAEVKKPGASVKVSCKASGYTFTSYYMHWVRQAPGQGLEWMGIINPSGGSTSYAQKFQGRVTMTRDTSTSTVYMELSSLRSEDTAVYYCAREEYAPFSAEYFQHWGQGTLVTVSS
VL: EIVLTQSPATLSLSPGERATLSCRASQSVNSYLAWYQQKPGQAPRLLIYDASNRATGIPARFSGSGSGTDFTLTISSLEPEDFAVYYCQQRSNWPPWTFGQGTKVEIKR
notes: Fab
ECL signal [10]: 203 ECL signal | ECL signal [11]: 111 ECL signal | ECL signal [12]: 120 ECL signal | ECL signal [13]: 176 ECL signal | ECL signal [14]: 224 ECL signal | ECL signal [15]: 1040 ECL signal | ECL signal [16]: 173 ECL signal

B3: Fab VH6-1_IGHD3-3*01_IGHJ4*01 & V4-3_IGLJ4*01 (Fab, V domains shown)
VH: QVQLQQSGPGLVKPSQTLSLTCAISGDSVSSNSAAWNWIRQSPSRGLEWLGRTYYRSKWYNDYAVSVKSRITINPDTSKNQFSLQLNSVTPEDTAVYYCAREYYDFWSGYYTDYFDYWGQGTLVTVSS
VL: QPVLTQPTSLSASPGASARLTCTLRSGINLGSYRIFWYQQKPESPPRYLLSYYSDSSKHQGSGVPSRFSGSKDASSNAGILVISGLQSEDEADYYCMIWHSSASFVFGGGTQLIIL
notes: Tested as a Fab made in E. coli; also called IGHV6-1*01
ECL signal [17]: 368 | ECL signal [18]: 1270 | ECL signal [19]: 478

From US20120058906A1 (published 2012)
